Measured values published in the supplement of paper PMC10724198.
± gives the standard deviation of the averaged measurements.

Legend:
Saccharomyces cerevisiae [1] = test: protein stability index of tFT-peptide fusion (C-terminal peptide) (PSI (0-1 scale)); higher = more stable (slower turnover)
Description: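 MPS profiling in S. cerevisiae of the tFT-X12 degron library: putative degron peptides plus stable controls, 12 aa, fused to the C-terminus of a sfGFP-mCherry timer. Cells are FACS-sorted into 8 mCherry/sfGFP bins and deep-sequenced. PSI runs from 0 (unstable) to 1 (stable). Backgrounds are wild type, das1Δ and doa10Δ at 30 °C, and wild type, das1Δ, cdc34-1 and cdc53-1 at 37 °C; 2-3 technical replicates each.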

Saccharomyces cerevisiae [2] = test: as above; details: genetic background: wild type; temperature: 30 C
[3] = genetic background: cdc34-1, temperature: 37 C
[4] = genetic background: cdc53-1, temperature: 37 C
[5] = genetic background: das1 deletion, temperature: 30 C
[6] = genetic background: das1 deletion, temperature: 37 C
[7] = genetic background: doa10 deletion, temperature: 30 C
[8] = genetic background: wild type, temperature: 30 C
[9] = genetic background: wild type, temperature: 37 C
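Also: PSI is a weighted mean of sequencing reads over stability bins, variants kept only with over 10 reads, mCherry proximal and sfGFP distal, peptide attached via GGGS linker.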

Sequence | protein stability index (Saccharomyces cerevisiae [1]; [3]) | protein stability index (Saccharomyces cerevisiae [1]; [4]) | protein stability index (Saccharomyces cerevisiae [1]; [5]) | protein stability index (Saccharomyces cerevisiae [1]; [6]) | protein stability index (Saccharomyces cerevisiae [1]; [7]) | protein stability index (Saccharomyces cerevisiae [1]; [8]) | protein stability index (Saccharomyces cerevisiae [1]; [9]) | protein stability index (Saccharomyces cerevisiae [2])
PSFSLLRSLTLI | 0.6084 ± 0.0024 | 0.7024 ± 0.0056 | 0.6712 ± 0.0021 | 0.699 ± 0.022 | 0.192 ± 0.02 | 0.205 ± 0.022 | 0.413 ± 0.027 | 0.284 ± 0.0073
KLLGVLFVLFPG | 0.486 ± 0.012 | 0.599 ± 0.034 | 0.367 ± 0.031 | 0.569 ± 0.01 | 0.324 ± 0.0068 | 0.336 ± 0.026 | 0.527 ± 0.018 | 0.443 ± 0.017
PPLPPPPPHPPP | 0.458 ± 0.045 | 0.52 ± 0.019 | 0.477 ± 0.0095 | 0.521 ± 0.023 | 0.501 ± 0.017 | 0.493 ± 0.04 | 0.4959 ± 0.0011 | 0.488 ± 0.016
LSRFGSTCPSGL | 0.72 ± 0.038 | 0.7696 ± 0.0062 | 0.642 ± 0.011 | 0.765 ± 0.032 | 0.6358 ± 0.0032 | 0.638 ± 0.012 | 0.7477 ± 0.0031 | 0.724 ± 0.0079
FAIPFVLFFRVT | 0.161 ± 0.02 | 0.134 ± 0.0062 | 0.257 ± 0.03 | 0.333 ± 0.017 | 0.2593 ± 0.0021 | 0.173 ± 0.024 | 0.231 ± 0.013 | 0.224 ± 0.07
VGVSVVMVVEVP | 0.0286 ± 0.0009 | 0.0328 ± 0.00097 | 0.0504 ± 0.005 | 0.0524 ± 0.0097 | 0.0409 ± 0.011 | 0.042 ± 0.0027 | 0.0384 ± 0.0064 | 0.0948 ± 0.012
GCYWPKTLGILC | 0.546 ± 0.018 | 0.555 ± 0.02 | 0.408 ± 0.021 | 0.568 ± 0.0092 | 0.346 ± 0.0062 | 0.378 ± 0.025 | 0.56 ± 0.032 | 0.465 ± 0.004
FLSLSFLLLHFP | 0.398 ± 0.018 | 0.39044 ± 0.00026 | 0.385 ± 0.04 | 0.535 ± 0.0059 | 0.543 ± 0.017 | 0.434 ± 0.041 | 0.479 ± 0.005 | 0.471 ± 0.064
RRPVHTHTSVSP | 0.7449 ± 0.00016 | 0.742 ± 0.05 | 0.652 ± 0.026 | 0.733 ± 0.0094 | 0.658 ± 0.022 | 0.6561 ± 0.0035 | 0.701 ± 0.012 | 0.606 ± 0.25
LNLACCWFVRCR | 0.311 ± 0.035 | 0.339 ± 0.011 | 0.253 ± 0.035 | 0.4215 ± 0.00083 | 0.2269 ± 0.00044 | 0.261 ± 0.021 | 0.399 ± 0.015 | 0.349 ± 0.03
YSVNSLFCKVFG | 0.469 ± 0.012 | 0.4777 ± 0.00052 | 0.348 ± 0.031 | 0.541 ± 0.0043 | 0.3135 ± 0.0031 | 0.361 ± 0.022 | 0.5054 ± 0.002 | 0.417 ± 0.032
CGWVRRARVKMM | 0.622 ± 0.073 | 0.693 ± 0.01 | 0.63 ± 0.026 | 0.709 ± 0.014 | 0.114 ± 0.03 | 0.137 ± 0.029 | 0.226 ± 0.0087 | 0.241 ± 0.015
VVGLVSIVQVIM | 0.43875 ± 0.0003 | 0.488 ± 0.024 | 0.308 ± 0.023 | 0.51 ± 0.027 | 0.279 ± 0.011 | 0.31 ± 0.024 | 0.493 ± 0.014 | 0.397 ± 0.041
LRGIVSVWILRA | 0.501 ± 0.034 | 0.56 ± 0.0093 | 0.441 ± 0.017 | 0.605 ± 0.0076 | 0.149 ± 0.0028 | 0.148 ± 0.0039 | 0.282 ± 0.0057 | 0.249 ± 0.025
FWSARAVVWWCW | 0.506 ± 0.036 | 0.554 ± 0.026 | 0.445 ± 0.021 | 0.567 ± 0.011 | 0.449 ± 0.012 | 0.449 ± 0.027 | 0.574 ± 0.039 | 0.477 ± 0.051
PPPPPLAIPHPT | 0.655 ± 0.037 | 0.709 ± 0.013 | 0.661 ± 0.04 | 0.684 ± 0.024 | 0.639 ± 0.011 | 0.674 ± 0.031 | 0.7141 ± 0.0041 | 0.7255 ± 0.0042
RCIFYHSPVLCL | 0.469 ± 0.022 | 0.515 ± 0.022 | 0.399 ± 0.023 | 0.51 ± 0.0089 | 0.365 ± 0.0064 | 0.398 ± 0.018 | 0.511 ± 0.041 | 0.449 ± 0.02
LFFVCSGVVFSF | 0.514 ± 0.052 | 0.5482 ± 0.0011 | 0.407 ± 0.03 | 0.5829 ± 0.0055 | 0.38 ± 0.01 | 0.384 ± 0.031 | 0.558 ± 0.011 | 0.507 ± 0.04
LLLFTPFYLLLR | 0.0987 ± 0.033 | 0.0767 ± 0.0017 | 0.218 ± 0.021 | 0.27 ± 0.0065 | 0.525 ± 0.015 | 0.188 ± 0.037 | 0.219 ± 0.016 | 0.305 ± 0.011
LLWALGLVLVEG | 0.152 ± 0.033 | 0.193 ± 0.026 | 0.217 ± 0.022 | 0.2919 ± 0.0014 | 0.171 ± 0.0078 | 0.204 ± 0.029 | 0.281 ± 0.015 | 0.377 ± 0.029
